The values that follow come from US20080167229A1 (Dana-Farber, published 2008).

For assay [1], the target named is T1, endogenous USP1, full length (HeLa and 293T cells) (human, UniProt O94782 1-785).
T1 construct: Full length endogenous protein detected in immunoprecipitates; also called Ubiquitin Specific Protease 1
T1 sequence: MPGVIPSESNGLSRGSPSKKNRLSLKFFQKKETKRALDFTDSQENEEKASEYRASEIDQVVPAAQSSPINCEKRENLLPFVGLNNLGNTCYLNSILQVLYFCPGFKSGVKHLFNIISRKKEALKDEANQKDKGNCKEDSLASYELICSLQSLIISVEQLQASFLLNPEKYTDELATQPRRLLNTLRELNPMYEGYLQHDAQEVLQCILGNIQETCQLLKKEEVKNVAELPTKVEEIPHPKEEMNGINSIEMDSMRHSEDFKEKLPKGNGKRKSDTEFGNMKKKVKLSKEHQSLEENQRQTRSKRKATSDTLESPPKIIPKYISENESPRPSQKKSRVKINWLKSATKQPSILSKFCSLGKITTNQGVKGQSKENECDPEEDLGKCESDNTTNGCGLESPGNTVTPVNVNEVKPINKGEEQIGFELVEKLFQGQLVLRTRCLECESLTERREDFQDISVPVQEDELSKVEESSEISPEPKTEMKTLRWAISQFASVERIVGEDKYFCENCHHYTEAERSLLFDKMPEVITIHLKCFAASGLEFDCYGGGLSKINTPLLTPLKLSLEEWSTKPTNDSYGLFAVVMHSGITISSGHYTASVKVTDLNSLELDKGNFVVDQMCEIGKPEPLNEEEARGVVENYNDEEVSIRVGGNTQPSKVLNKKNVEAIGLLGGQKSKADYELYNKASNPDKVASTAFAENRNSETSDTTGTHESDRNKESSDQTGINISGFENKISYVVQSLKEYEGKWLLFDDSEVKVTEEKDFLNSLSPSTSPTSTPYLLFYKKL
Kind of assay: anti-Flag immunoprecipitation from transiently transfected 293T cells, anti-USP1 immunoblot. The procedure: (§1) The Flag-tagged proteins were immunoprecipitated from cell lysates using anti-Flag antibodies. The immunoprecipitates were analyzed using the indicated antibodies. […] The concentrations of all proteins were 10 nM.
A general note: Immunoblotting shows a protein as a band on a membrane.

The target of assay [2] is T2, N-terminal cleavage product of endogenous USP1 (human, UniProt O94782 1-671).
T2 construct: the end at 671 is inferred from that; also called N-terminal USP1; N-terminal USP1 fragment
T2 sequence: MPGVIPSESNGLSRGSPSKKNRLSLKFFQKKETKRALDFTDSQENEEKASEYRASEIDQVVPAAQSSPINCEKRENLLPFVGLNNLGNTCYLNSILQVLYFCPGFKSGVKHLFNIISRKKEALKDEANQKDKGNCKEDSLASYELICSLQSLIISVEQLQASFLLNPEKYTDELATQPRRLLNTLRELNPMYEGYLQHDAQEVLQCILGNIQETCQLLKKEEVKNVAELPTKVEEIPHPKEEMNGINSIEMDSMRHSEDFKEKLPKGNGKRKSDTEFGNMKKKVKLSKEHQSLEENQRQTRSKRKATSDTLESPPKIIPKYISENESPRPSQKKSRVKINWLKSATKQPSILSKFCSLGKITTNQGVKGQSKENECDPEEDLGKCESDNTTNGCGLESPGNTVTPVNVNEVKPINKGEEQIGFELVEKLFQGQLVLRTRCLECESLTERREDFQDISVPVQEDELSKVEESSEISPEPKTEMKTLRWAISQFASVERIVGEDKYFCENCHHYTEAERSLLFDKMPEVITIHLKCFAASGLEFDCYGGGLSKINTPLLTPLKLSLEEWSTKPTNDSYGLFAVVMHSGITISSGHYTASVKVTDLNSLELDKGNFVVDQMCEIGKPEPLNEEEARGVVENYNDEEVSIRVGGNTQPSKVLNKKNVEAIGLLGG
The description is as above. The procedure: as §1

B1: Flag-tagged UAF1-Δ507-546 expressed in 293T cells (other)
chain: MAAHHRQNTAGRRKVQVSYVIRDEVEKYNRNGVNALQLDPALNRLFTAGRDSIIRIWSVNQHKQDPYIASMEHHTDWVNDIVLCCNGKTLISASSDTTVKVWNAHKGFCMSTLRTHKDYVKALAYAKDKELVASAGLDRQIFLWDVNTLTALTASNNTVTTSSLSGNKDSIYSLAMNQLGTIIVSGSTEKVLRVWDPRTCAKLMKLKGHTDNVKALLLNRDGTQCLSGSSDGTIRLWSLGQQRCIATYRVHDEGVWALQVNDAFTHVYSGGRDRKIYCTDLRNPDIRVLICEEKAPVLKMELDRSADPPPAIWVATTKSTVNKWTLKGIHNFRASGDYDNDCTNPITPLCTQPDQVIKGGASIIQCHILNDKRHILTKDTNNNVAYWDVLKACKVEDLGKVDFEDEIKKRFKMVYVPNWFSVDLKTGMLTITLDESDCFAAWVSAKDAGFSSPDGSDPKLNLGGLLLQALLEYWPRTHVNPMDEEENEVNHVNGEQENRVQKGNGYPQWVIDITVDKNMPKFNKIPFYLQPHASSGAKTLKKDRLSASDMLQVRKVMEHVYEKIINLDNESQTTSSSNNEKPGEQEKEEDIAVLAEEKIELLCQDQVLDPNMDLRTVKHFIWKSGGDLTLHYRQKS
notes: Deletion of aa 507-546 as printed; not shown: Flag tag
With B1, the binding result in assay [1] and in assay [2] was “no binding” in each case.
